Where a chain is given by its changes, count along the chain named.
Tests used:
[1] = molecular target: T1, human IL-6 receptor (soluble hIL-6R) (human, UniProt P08887 20-357, limits assumed, biotin-labeled in the ELISA experiments (sites not given)); assay: SPR Biacore T200, IL-6R immobilised on CM5, antibody analyte in a concentration series, 1 mM ATP, 25 C; KD from plot of equilibrium value against antibody concentration; SPR, IL-6R on the chip, antibody concentration series, 1 mM ATP, 25 C
T1 construct: also called biotin-labeled hIL-6R
T1 sequence: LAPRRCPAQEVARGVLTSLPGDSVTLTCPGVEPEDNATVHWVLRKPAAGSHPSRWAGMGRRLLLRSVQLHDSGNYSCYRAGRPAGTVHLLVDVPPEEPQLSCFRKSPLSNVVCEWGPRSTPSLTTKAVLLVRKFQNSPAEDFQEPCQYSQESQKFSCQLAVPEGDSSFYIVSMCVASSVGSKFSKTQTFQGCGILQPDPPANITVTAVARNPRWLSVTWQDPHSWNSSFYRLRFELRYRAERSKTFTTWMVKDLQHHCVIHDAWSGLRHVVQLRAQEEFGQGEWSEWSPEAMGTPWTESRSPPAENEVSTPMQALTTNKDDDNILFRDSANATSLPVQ
Method: The running buffer was used: 20 mmol/1 ACES, 150 mmol/l NaCl, 0.05% (w/v) Tween20, pH 7.4. Assay was carried out at 25° C. […] For dilution of the antibodies, the running buffer or the running buffer containing any one of ATP, ADP, AMP, cAMP, and adenosine (ADO) were used. The final concentration of each small molecule and the final concentration of each antibody were adjusted to 1 mM and 1 μM, respectively. Meanwhile, under the 1 mM ATP condition, assay was carried out with a series of stepwise antibody concentrations. The dissociation constant KD (mol/L) of each clone for IL-6R was calculated from a plot of equilibrium value against antibody concentration. The parameters were calculated using the Biacore T200 Evaluation Software (GE Healthcare).

[2] = molecular target: T2, human IL-6 (human, biotin-labeled in the ELISA experiments (sites not given)); assay: SPR (Biacore T200), A11 immobilised on CM5, 1 µmol/L IL-6 as analyte for 60 s, 25 °C, kynurenine concentration varied (axis in µmol/L)
T2 construct: ELISA used biotin-labeled human IL-6; SPR used human IL-6 from Kamakura Techno-Science, Inc; also called biotin-labeled human IL-6
Method: The running buffer used was 10 mmol/1 ACES, 150 mmol/l NaCl, 0.05% (w/v) Tween20, pH 7.4. […] All was immobilized onto sensor chip CM5 by amine coupling, and as an analyte IL-6 was diluted to 1 μmol/l with 10 mmol/1 ACES, 150 mmol/l NaCl, 0.05% (w/v) Tween20, pH 7.4 containing kynurenine at various concentrations, and allowed to interact for 60 seconds to observe changes in the amount of binding.

[3] = molecular target: T2, human IL-6; assay: SPR Biacore T200, A11 captured on protein A/G CM5 chip, human IL-6 analyte, 37 C, running buffer with 100 µmol/l kynurenine; SPR kinetics, A11 captured on the chip, IL-6 analyte, 100 µmol/l kynurenine
Method: Sensor chip CM5 (GE Healthcare) was immobilized with an appropriate amount of protein A/G (Invitrogen) by amine coupling. Antibodies of interest were captured by the chip to allow interaction to IL-6 as an antigen. The two types of running buffers used were 10 mmol/1 ACES, 150 mmol/l NaCl, 0.05% (w/v) Tween20, 100 μmol/l kynurenine, pH 7.4, and 10 mmol/1 ACES, 150 mmol/l NaCl, 0.05% (w/v) Tween20, pH 7.4. The interaction with IL-6 as an antigen was assessed at 37° C. The buffer used to dilute IL-6 was the same running buffer as described above.
Then, the running buffer was injected at a flow rate of 5 μl/min for three minutes. After observation of human IL-6 dissociation from the antibody, 10 mmol/l glycine-HCl (pH 1.5) was injected at a flow rate of 30 μl/min for 30 seconds to regenerate the sensor chip. […] Each parameter was calculated using the Biacore T200 Evaluation Software (GE Healthcare).

[4] = molecular target: T3, membrane-type human IL-6R expressed on cells (human, UniProt P08887 20-468); assay: flow cytometry, BaF/hIL-6R cells, secondary antibody against the constant region, with or without 100 µM kynurenine
T3 construct: These are Ba/F3 cells (BaF/hIL-6R, WO2012/073992) or CHO cells expressing human IL-6 receptor; also called hIL-6R expressed on cell membrane; cell-membrane hIL-6R
T3 sequence: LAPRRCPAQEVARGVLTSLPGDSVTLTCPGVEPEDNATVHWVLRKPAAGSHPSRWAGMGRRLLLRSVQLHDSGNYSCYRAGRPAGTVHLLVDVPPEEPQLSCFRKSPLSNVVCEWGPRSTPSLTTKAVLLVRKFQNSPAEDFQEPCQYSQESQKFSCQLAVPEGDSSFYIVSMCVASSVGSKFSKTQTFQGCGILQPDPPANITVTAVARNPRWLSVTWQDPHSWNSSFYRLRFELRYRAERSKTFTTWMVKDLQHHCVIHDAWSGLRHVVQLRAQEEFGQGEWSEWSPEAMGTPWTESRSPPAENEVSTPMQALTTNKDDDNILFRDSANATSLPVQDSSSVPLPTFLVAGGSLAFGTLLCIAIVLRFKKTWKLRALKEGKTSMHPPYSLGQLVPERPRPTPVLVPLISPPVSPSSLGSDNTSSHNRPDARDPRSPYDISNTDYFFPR
Method: An appropriate number of BaF/hIL-6R cells were prepared and blocked with PBS containing 2% FBS on ice for one hour or more. […] In this step, the antibodies were contacted with cell-membrane hIL-6R on ice for 30 minutes. […] Then, in the presence or absence of kynurenine, the complex was contacted with a secondary antibody (Beckman Coulter IM1627) that recognizes the antibody constant region. After 30 minutes of incubation with the antibody on ice, the cells were again washed with Wash Buffer and then re-suspended in PBS/2% FBS.

[5] = molecular target: T1, human IL-6 receptor (soluble hIL-6R); assay: SPR Biacore T200, antibody captured on protein A CM5 chip, IL-6R analyte, 25 C, with 100 µmol/l kynurenine; SPR, antibody captured on the chip, IL-6R as analyte, 100 µmol/l kynurenine
Method: Each parameter was calculated using the Biacore T200 Evaluation Software (GE Healthcare).

[6] = molecular target: T4, human serum albumin (human, UniProt P02768 25-609, biotin-labeled (sites not given)); assay: ELISA, biotin-labeled HSA on streptavidin plate, absorbance 450 nm; nine small-molecule conditions of Table 3
T4 construct: also called HSA; biotin-labeled HSA

[7] = molecular target: T1, human IL-6 receptor (soluble hIL-6R); assay: ELISA, biotin-labeled hIL-6R on streptavidin plate, absorbance 450 nm; seven conditions of Table 18

B1: 6RAD2C1-4_001 (antibody, human IgG1, kappa, V domains shown)
VH: EVQLVESGGDLVKPGGGLRLSCAASGFTFSGHTMNWVRQAPGKGLEWVSSISSRSNYIYYADSVKGRFTISRDNAKNSLYLQMNSLRAEDTAVYYCARYGRLHDRNWVFDYWGQGTLVTVSS
VL: QSALTQPPSASGSPGQTVTISCTGTSTDVGDYNYVSWYQQHPGKAPKLMIYQVSKKPSGVPDRFSGSKSGNTASLTVSGLQAEDEADYFCSSRSYGAGVVFGGGTKLTVLR
notes: also called 6RAD2C1-4_01
Kd [1]: 300 nM

B2: 6RAD2C1-4_076 (antibody, human IgG1, kappa, V domains shown)
VH: B1 VH with H32Y, N56S, Y59D, R101A, H103G, D104Q
VL: QSALTQPPSASGSPGQTVTISCTGTSTDVGDYNYVSWYQQHPGKAPKLMIYQTSKRPSGVPDRFSGSKSGNTASLTVSGLQAEDEADYFCSSRSIKHPVFGGGTKLTVLR
notes: also called 6RAD2C1-4_76
Kd [1]: 250 nM

B3: 6RAD2C1-4_030 (antibody, human IgG1, kappa, V domains shown)
VH: B1 VH with G31S, H32Y, N56G, I58A, Y99F, R101A, H103N, D104T, R105L
VL: B1 VL with S92T, S94T, Y95A, G96N, V100L
notes: also called 6RAD2C1-4_30
Kd [1]: 330 nM

B4: 6RDL3C1-4_085 (antibody, human IgG1, kappa, V domains shown)
VH: B1 VH
VL: B1 VL
notes: also called 6RDL3C1-4_85
Kd [1]: 390 nM

B5: 6RAD2C1-4_005 (antibody, human IgG1, kappa, V domains shown)
VH: B1 VH with G31T, N56S, Y59H, Y99F, R101K, H103G, D104E
VL: B1 VL with S92V, Y95D, A97H, V99P, V100M
notes: also called 6RAD2C1-4_05
Kd [1]: 340 nM

B6: 6RAD2C1-4_026 (antibody, human IgG1, kappa, V domains shown)
VH: B1 VH with H32Y, I58A, Y59H, H103G
VL: B1 VL with D31A, Q52K, S92L, S94A, Y95A, G96T, A97T, V100L
notes: also called 6RAD2C1-4_26
Kd [1]: 210 nM

B7: 6RAD2C1-4_011 (antibody, human IgG1, kappa, V domains shown)
VH: B1 VH with N56S, R101A, H103G, D104Q, R105M
VL: B1 VL with Q52S, K56R, Y95S, G96S, A97M, G98N, V100L
notes: also called 6RAD2C1-4_11
Kd [1]: 230 nM

B8: I6NMSC1-3_A11 (antibody, human IgG1, lambda, V domains shown)
VH: QVQLQESGGGVVQPGRSLRLSCAASGFTFSSYAMHWVRQAPGKGLEWVAVISYDGSNKYYADSVKGRFTISRDNSKNTLYLQMNSLRAEDTAVYYCARDAVTGDDWYFDLWGRGTLVTVSS
VL: SYELTQPPSVSVAPGKTARITCGGNNIGSKSVHWYQQKPGQAPVLVVYDDSDRPSGIPERFSGSNSGNTATLTISRVEAGDEADYYCQVWDSSSDHPVFGGGTKLTVLG
KD printed beside the curve of IL-6 binding against the kynurenine concentration (per paragraph 715 the KD of kynurenine for forming the A11/IL-6/kynurenine complex, not the antibody-antigen KD) [2]: 32 nM
Kd [3]: 1000 nM

B9: MRA (antibody, human IgG1, kappa, V domains shown)
VH: QVQLQESGPGLVRPSQTLSLTCTVSGYSITSDHAWSWVRQPPGRGLEWIGYISYSGITTYNPSLKSRVTMLRDTSKNQFSLRLSSVTAADTAVYYCARSLARTTAMDYWGQGSLVTVSS
VL: DIQMTQSPSSLSASVGDRVTITCRASQDISSYLNWYQQKPGKAPKLLIYYTSRLHSGVPSRFSGSGSGTDFTFTISSLQPEDIATYYCQQGNTLPYTFGQGTKVEIKR
notes: also called known anti-human IL-6R antibody MRA; control antibody MRA
binding result [4]: binds

B10: 6RNMSC1-2_F02 (antibody, human IgG1, kappa)
heavy: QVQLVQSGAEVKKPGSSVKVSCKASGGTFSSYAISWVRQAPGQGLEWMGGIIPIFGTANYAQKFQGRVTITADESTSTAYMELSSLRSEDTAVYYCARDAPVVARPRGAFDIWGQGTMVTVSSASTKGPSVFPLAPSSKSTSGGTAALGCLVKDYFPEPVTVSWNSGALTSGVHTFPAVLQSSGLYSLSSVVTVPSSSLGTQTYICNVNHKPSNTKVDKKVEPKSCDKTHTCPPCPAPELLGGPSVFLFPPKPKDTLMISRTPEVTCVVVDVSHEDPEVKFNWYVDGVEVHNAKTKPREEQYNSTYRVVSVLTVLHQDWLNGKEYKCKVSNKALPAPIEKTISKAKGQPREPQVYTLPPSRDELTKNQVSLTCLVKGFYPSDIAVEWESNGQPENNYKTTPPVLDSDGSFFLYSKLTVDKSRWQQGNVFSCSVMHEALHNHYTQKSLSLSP
light: DIVMTQTPLSSPVTLGQPASISCRSSQSLVHSDGNTYLSWLQQRPGQPPRLLIHEISNRFSGVPDRFSGSGAGTNFTLKISRVEAEDVGVYYCMQATQFPRTFGQGTKVEIKRTVAAPSVFIFPPSDEQLKSGTASVVCLLNNFYPREAKVQWKVDNALQSGNSQESVTEQDSKDSTYSLSSTLTLSKADYEKHKVYACEVTHQGLSSPVTKSFNRGEC
notes: also called clone 6RNMSC1-2_F02
Kd [5]: 1500 nM

B11: GC413 (antibody, human IgG1, kappa, L234A L235A, N297A, V domains shown)
VH: QVQLVQSGAEVKKPGASVKVSCKASGYTFTDYEMHWIRQPPGQGLEWIGAIDPKTGDTAYSQKFKGRVTLTADKSTSTAYMELSSLTSEDTAVYYCTRFYSYTYWGQGTLVTVSS
VL: DIVMTQSPLSLPVTPGEPASISCRSSQSLVHSNRNTYLHWYQQKPGQAPRLLIYKVSNRFSGVPDRFSGSGSGTDFTLKISRVEAEDVGVYYCSQNTHVPPTFGQGTKLEIKR
notes: also called anti-human glypican 3 antibody GC413; anti-human glypican-3 antibody GC413
binding result [6]: no binding (tested: 2.5 µg/ml)
binding result [7]: no binding (tested: 2.5 µg/ml)
